We go through 31 molecules from article PMC6555819, “Comprehensive study of nuclear receptor DNA binding provides a revised framework for understanding receptor specificity”.

The labels stand for the following.
B1: NRC3_wobSeed112_DR4_G15C_o1 (dsDNA)
DNA 1: GCTAGCCTAGGTCACATCGGGCCAGTATACGCTATAGCGATTGACAGCGTAGAATGAAGG
DNA 2: CCTTCATTCTACGCTGTCAATCGCTATAGCGTATACTGGCCCGATGTGACCTAGGCTAGC
B2: NRC3_wobSeed27_DR1_T5G_o1 (dsDNA)
DNA 1: GCACGCGGAGGACAAAGGTCAGAGCTACGCCAGTGAGCGATTGACAGCGTAGAATGAAGG
DNA 2: CCTTCATTCTACGCTGTCAATCGCTCACTGGCGTAGCTCTGACCTTTGTCCTCCGCGTGC
B3: NRC3_wobSeed39_DR1_G22T_o1 (dsDNA)
DNA 1: GCCGAACTAGGTCAAAGGACATTGAAAGGCGACGTAGCGATTGACAGCGTAGAATGAAGG
DNA 2: CCTTCATTCTACGCTGTCAATCGCTACGTCGCCTTTCAATGTCCTTTGACCTAGTTCGGC
B4: NRC3_wobSeed76_DR3_G9C_o1 (dsDNA)
DNA 1: GCCCTACTCGGCCAAAAAGGTCATTGATGCCGATAAGCGATTGACAGCGTAGAATGAAGG
DNA 2: CCTTCATTCTACGCTGTCAATCGCTTATCGGCATCAATGACCTTTTTGGCCGAGTAGGGC
B5: NRC3_wobSeed44_DR1_A5T_o1 (dsDNA)
DNA 1: GCTGTATGAGGTTAAAGATCAGGGAACGTGGCGTCGGCGATTGACAGCGTAGAATGAAGG
DNA 2: CCTTCATTCTACGCTGTCAATCGCCGACGCCACGTTCCCTGATCTTTAACCTCATACAGC
B6: NRC3_wobSeed10_DR0_T4G_o1 (dsDNA)
DNA 1: GCAGCGAAAGGTCGAGGTGAGTATAGAGAAAGGGAAGCGATTGACAGCGTAGAATGAAGG
DNA 2: CCTTCATTCTACGCTGTCAATCGCTTCCCTTTCTCTATACTCACCTCGACCTTTCGCTGC
B7: NRC3_wobSeed92_DR3_T13C_o1 (dsDNA)
DNA 1: GCAGAATGAGGTCATTAAGATCAGGGAATTGCGGTCGCGATTGACAGCGTAGAATGAAGG
DNA 2: CCTTCATTCTACGCTGTCAATCGCGACCGCAATTCCCTGATCTTAATGACCTCATTCTGC
B8: NRC3_wobSeed88_DR3_C21A_o1 (dsDNA)
DNA 1: GCTAGCCTAGGTCATGCGGGACAGTATAGTGTCGGCGCGATTGACAGCGTAGAATGAAGG
DNA 2: CCTTCATTCTACGCTGTCAATCGCGCCGACACTATACTGTCCCGCATGACCTAGGCTAGC
B9: NRC3_wobSeed88_DR3_G20C_o1 (dsDNA)
DNA 1: GCTAGCCTAGGTCATGCGGCCCAGTATAGTGTCGGCGCGATTGACAGCGTAGAATGAAGG
DNA 2: CCTTCATTCTACGCTGTCAATCGCGCCGACACTATACTGGGCCGCATGACCTAGGCTAGC
B10: NRC3_wobSeed82_DR3_A18C_o1 (dsDNA)
DNA 1: GCATCGAAAGGTCGACGCGGTGAGTATACACCGTTTGCGATTGACAGCGTAGAATGAAGG
DNA 2: CCTTCATTCTACGCTGTCAATCGCAAACGGTGTATACTCACCGCGTCGACCTTTCGATGC
B11: NRC3_wobSeed42_DR1_C7A_o1 (dsDNA)
DNA 1: GCTATAAAGGGTCAAAGGCCAGAGTACGAATGTCGAGCGATTGACAGCGTAGAATGAAGG
DNA 2: CCTTCATTCTACGCTGTCAATCGCTCGACATTCGTACTCTGGCCTTTGACCCTTTATAGC
B12: NRC3_wobSeed87_DR3_A5C_o1 (dsDNA)
DNA 1: GCCGCACTAGGTCATCCAGGACAGTGAATACATTGAGCGATTGACAGCGTAGAATGAAGG
DNA 2: CCTTCATTCTACGCTGTCAATCGCTCAATGTATTCACTGTCCTGGATGACCTAGTGCGGC
B13: NRC3_wobSeed87_DR3_T15C_o1 (dsDNA)
DNA 1: GCCGAACTAGGTCACCCAGGACAGTGAATACATTGAGCGATTGACAGCGTAGAATGAAGG
DNA 2: CCTTCATTCTACGCTGTCAATCGCTCAATGTATTCACTGTCCTGGGTGACCTAGTTCGGC
B14: NRC3_wobSeed87_DR3_A23C_o1 (dsDNA)
DNA 1: GCCGAACTAGGTCATCCAGGACCGTGAATACATTGAGCGATTGACAGCGTAGAATGAAGG
DNA 2: CCTTCATTCTACGCTGTCAATCGCTCAATGTATTCACGGTCCTGGATGACCTAGTTCGGC
B15: NRC3_wobSeed138_DR5_G19C_o1 (dsDNA)
DNA 1: GCGATACAGGGTCAGCTACAGGCCAGAGTATGGAAAGCGATTGACAGCGTAGAATGAAGG
DNA 2: CCTTCATTCTACGCTGTCAATCGCTTTCCATACTCTGGCCTGTAGCTGACCCTGTATCGC
B16: NRC3_wobSeed136_DR5_T16A_o1 (dsDNA)
DNA 1: GCTAGCCTAGGTCATACAGGGGCCAGTATAGAAAGCGCGATTGACAGCGTAGAATGAAGG
DNA 2: CCTTCATTCTACGCTGTCAATCGCGCTTTCTATACTGGCCCCTGTATGACCTAGGCTAGC
B17: NRC3_wobSeed34_DR1_T4A_o1 (dsDNA)
DNA 1: GCAACGAAAGGTCGAAGGTGAGTATACCCACCCGAAGCGATTGACAGCGTAGAATGAAGG
DNA 2: CCTTCATTCTACGCTGTCAATCGCTTCGGGTGGGTATACTCACCTTCGACCTTTCGTTGC
B18: NRC3_wobSeed34_DR1_A21C_o1 (dsDNA)
DNA 1: GCATCGAAAGGTCGAAGGTGCGTATACCCACCCGAAGCGATTGACAGCGTAGAATGAAGG
DNA 2: CCTTCATTCTACGCTGTCAATCGCTTCGGGTGGGTATACGCACCTTCGACCTTTCGATGC
B19: NRC3_wobSeed141_DR5_A29T_o1 (dsDNA)
DNA 1: GCAGTCAAAGTTCAGGACGAGGTAACGTTAAGCACGGCGATTGACAGCGTAGAATGAAGG
DNA 2: CCTTCATTCTACGCTGTCAATCGCCGTGCTTAACGTTACCTCGTCCTGAACTTTGACTGC
B20: NRC3_wobSeed50_DR2_G11T_o1 (dsDNA)
DNA 1: GCCCTAGTTGTTCAGGAGGTCACACACCGGATATGAGCGATTGACAGCGTAGAATGAAGG
DNA 2: CCTTCATTCTACGCTGTCAATCGCTCATATCCGGTGTGTGACCTCCTGAACAACTAGGGC
B21: NRC3_wobSeed113_DR4_G29C_o1 (dsDNA)
DNA 1: GCATATGTAGGTTAGCTGGGGTCATTCACACTAGGCGCGATTGACAGCGTAGAATGAAGG
DNA 2: CCTTCATTCTACGCTGTCAATCGCGCCTAGTGTGAATGACCCCAGCTAACCTACATATGC
B22: NRC3_wobSeed134_DR5_G26C_o1 (dsDNA)
DNA 1: GCGCTGCTAGGTCAACTGATGGTCACCTAAAGCTCGGCGATTGACAGCGTAGAATGAAGG
DNA 2: CCTTCATTCTACGCTGTCAATCGCCGAGCTTTAGGTGACCATCAGTTGACCTAGCAGCGC
B23: NRC3_wobSeed134_DR5_T23C_o1 (dsDNA)
DNA 1: GCGCTGCTAGGTCAACTGATGGCCAGCTAAAGCTCGGCGATTGACAGCGTAGAATGAAGG
DNA 2: CCTTCATTCTACGCTGTCAATCGCCGAGCTTTAGCTGGCCATCAGTTGACCTAGCAGCGC
B24: NRC3_wobSeed135_DR5_A29G_o1 (dsDNA)
DNA 1: GCCGAACTAGGTCATTGACAGGACAGTGGATAGTAAGCGATTGACAGCGTAGAATGAAGG
DNA 2: CCTTCATTCTACGCTGTCAATCGCTTACTATCCACTGTCCTGTCAATGACCTAGTTCGGC
B25: NRC3_wobSeed13_DR0_C13T_o1 (dsDNA)
DNA 1: GCCGTCCAAGGTTAAGGTCAGTGAAAGAGACTCGAAGCGATTGACAGCGTAGAATGAAGG
DNA 2: CCTTCATTCTACGCTGTCAATCGCTTCGAGTCTCTTTCACTGACCTTAACCTTGGACGGC
B26: NRC3_wobSeed1_DR0_A20T_o1 (dsDNA)
DNA 1: GCCAAACTAGGTCAAGGTCTAAGTCGGTTTGTGCCAGCGATTGACAGCGTAGAATGAAGG
DNA 2: CCTTCATTCTACGCTGTCAATCGCTGGCACAAACCGACTTAGACCTTGACCTAGTTTGGC
B27: NRC3_wobSeed15_DR0_G23A_o1 (dsDNA)
DNA 1: GCCGAACTAGGTCAAGGACAGTAAATCTCCGCACGCGCGATTGACAGCGTAGAATGAAGG
DNA 2: CCTTCATTCTACGCTGTCAATCGCGCGTGCGGAGATTTACTGTCCTTGACCTAGTTCGGC
B28: NRC3_wobSeed15_DR0_A18C_o1 (dsDNA)
DNA 1: GCCGAACTAGGTCAAGGCCAGTGAATCTCCGCACGCGCGATTGACAGCGTAGAATGAAGG
DNA 2: CCTTCATTCTACGCTGTCAATCGCGCGTGCGGAGATTCACTGGCCTTGACCTAGTTCGGC
B29: NRC3_wobSeed37_DR1_A14G_o1 (dsDNA)
DNA 1: GCCGTCCAAGGTCGAAGGTCAGTGAAGAGATGACGGGCGATTGACAGCGTAGAATGAAGG
DNA 2: CCTTCATTCTACGCTGTCAATCGCCCGTCATCTCTTCACTGACCTTCGACCTTGGACGGC
B30: NRC3_wobSeed46_DR1_A25C_o1 (dsDNA)
DNA 1: GCTTACCAAGGTGAAAGGTCGTTGCTGCACGCCTTGGCGATTGACAGCGTAGAATGAAGG
DNA 2: CCTTCATTCTACGCTGTCAATCGCCAAGGCGTGCAGCAACGACCTTTCACCTTGGTAAGC
B31: NRC3_wobSeed46_DR1_A5G_o1 (dsDNA)
DNA 1: GCTTGCCAAGGTGAAAGGTCGTTGATGCACGCCTTGGCGATTGACAGCGTAGAATGAAGG
DNA 2: CCTTCATTCTACGCTGTCAATCGCCAAGGCGTGCATCAACGACCTTTCACCTTGGCAAGC

Chain of FXR:RXRa (Q96RI1 whole entry, chain 1 of 2): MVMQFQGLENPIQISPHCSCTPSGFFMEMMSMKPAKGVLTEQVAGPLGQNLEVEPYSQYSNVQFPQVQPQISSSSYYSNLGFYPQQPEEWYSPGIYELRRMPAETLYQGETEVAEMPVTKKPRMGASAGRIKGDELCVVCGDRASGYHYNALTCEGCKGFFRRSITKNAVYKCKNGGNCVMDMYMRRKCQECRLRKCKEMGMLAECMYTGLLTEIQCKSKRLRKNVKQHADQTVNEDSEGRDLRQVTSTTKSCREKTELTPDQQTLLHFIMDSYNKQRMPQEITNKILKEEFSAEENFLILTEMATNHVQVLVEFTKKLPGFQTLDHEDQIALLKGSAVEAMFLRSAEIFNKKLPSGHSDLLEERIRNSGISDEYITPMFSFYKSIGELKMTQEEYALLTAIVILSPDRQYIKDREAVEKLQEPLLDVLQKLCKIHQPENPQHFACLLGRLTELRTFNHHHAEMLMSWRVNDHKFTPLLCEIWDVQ
Chain of FXR:RXRa (P19793 whole entry, chain 2 of 2): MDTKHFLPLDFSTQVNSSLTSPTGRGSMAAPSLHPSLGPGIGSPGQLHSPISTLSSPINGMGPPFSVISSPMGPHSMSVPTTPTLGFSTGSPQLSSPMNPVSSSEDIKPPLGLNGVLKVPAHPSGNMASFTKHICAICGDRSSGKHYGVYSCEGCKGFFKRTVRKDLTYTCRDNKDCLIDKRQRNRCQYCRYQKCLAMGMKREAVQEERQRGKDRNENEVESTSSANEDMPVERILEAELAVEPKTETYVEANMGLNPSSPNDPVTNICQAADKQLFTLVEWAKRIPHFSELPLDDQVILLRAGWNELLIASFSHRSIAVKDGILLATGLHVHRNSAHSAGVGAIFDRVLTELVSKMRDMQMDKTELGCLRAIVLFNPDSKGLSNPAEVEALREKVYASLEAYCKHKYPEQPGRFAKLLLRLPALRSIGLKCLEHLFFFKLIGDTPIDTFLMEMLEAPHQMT

The data set has as its target FXR:RXRa (Homo sapiens, UniProt Q96RI1;P19793 full;full). Description: no ligand; PBM; 270 nM : 90 nM RXRa; PBS pH 7.4, 2% milk, 0.02% Triton X-100, 1 mM DTT, BSA, 0.4 mg/ml salmon testes DNA. The conditions noted are these: tags: His kept;His cleaved; copies: 1;1; label: surface-attached array probe. In outline:
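The probes on custom Agilent 4×180K protein-binding microarrays were double-stranded, with 34-nt variable regions bearing direct-repeat seeds, single-nucleotide variants, half-site ablations and random human genomic background sequences. Incubation lasted 1 h with ligand-free nuclear receptor dimers in PBS pH 7.4, 2% milk, 0.02% Triton X-100, 1 mM DTT, 0.2 mg/mL BSA and 0.4 mg/ml salmon testes DNA. Antibodies against each partner (one per run) detected bound dimers, and fluorescence scans were regression-normalized. Binding z-scores take the random background probes as reference.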
Regarding B1, the binding signal is 3.96 PBM z-score against 500 random probes.

As to B2, the binding signal was 4.39 PBM z-score against 500 random probes.

Take B3: the binding signal is 4.46 PBM z-score against 500 random probes.

With B4, the binding signal was 3.98 PBM z-score against 500 random probes.

For B5, the binding signal was 3.64 PBM z-score against 500 random probes.

Consider B6, for which the binding signal is 4.31 PBM z-score against 500 random probes.

B7: the binding signal was 7.7 PBM z-score against 500 random probes.

In the case of B8, the binding signal is 4.37 PBM z-score against 500 random probes.

On to B9, for which the binding signal was 3.84 PBM z-score against 500 random probes.

Turning to B10, the binding signal is 3.87 PBM z-score against 500 random probes.

As to B11, the binding signal was 7.71 PBM z-score against 500 random probes.

For the molecule B12, the binding signal is 4.33 PBM z-score against 500 random probes.

As to B13, the binding signal was 3.58 PBM z-score against 500 random probes.

Regarding B14, the binding signal was 3.93 PBM z-score against 500 random probes.

Regarding B15, the binding signal is 4.25 PBM z-score against 500 random probes.

As to B16, the binding signal is 4.09 PBM z-score against 500 random probes.

For the molecule B17, the binding signal is 4.23 PBM z-score against 500 random probes.

In the case of B18, the binding signal was 4.14 PBM z-score against 500 random probes.

B19: the binding signal was 4.29 PBM z-score against 500 random probes.

Turning to B20, the binding signal is 3.71 PBM z-score against 500 random probes.

In the case of B21, the binding signal is 4.06 PBM z-score against 500 random probes.

Regarding B22, the binding signal was 4.42 PBM z-score against 500 random probes.

Regarding B23, the binding signal is 3.9 PBM z-score against 500 random probes.

On to B24, for which the binding signal was 4.02 PBM z-score against 500 random probes.

Take B25: the binding signal was 4.12 PBM z-score against 500 random probes.

For the molecule B26, the binding signal was 3.61 PBM z-score against 500 random probes.

Take B27: the binding signal was 3.73 PBM z-score against 500 random probes.

Regarding B28, the binding signal was 3.52 PBM z-score against 500 random probes.

With B29, the binding signal was 3.76 PBM z-score against 500 random probes.

For the molecule B30, the binding signal is 3.81 PBM z-score against 500 random probes.

For the molecule B31, the binding signal is 3.55 PBM z-score against 500 random probes.
